The values below come from patent US10934529B2, “Three dimensional hydrogels for culturing organoids” (Ecole Polytechnique Fèdèrale de Lausanne, priority 2015, dated 2021).

The subject of this test is intestinal stem cells (ISCs). The test is described as follows: ISC colony formation efficiency / ISC expansion in hydrogels. It counts as cell-based, mouse. The conditions noted are these: PEG-RGD, Wnt3a-containing medium. The procedure: Freshly isolated crypts or single cells from dissociated colonies were added to the Matrigel or hydrogels precursor solution and cast in 20-μL droplets at the bottom of wells in 24-well plate. […] For single cell culture, thiazovivin (2.5 μM; Stemgent) and Jagged-1 peptide ([…]; Anaspec) was included in the medium during the first two days. Broad spectrum protease inhibitor, GM6001, was added to the medium while embedding the cells in PEG hydrogels. Every two days the growth factors were replenished and the full medium was changed.
To quantify the colony formation efficiency of single embedded ISCs, phase contrast z-stacks spanning the entire thickness of the cell-laden Matrigel or PEG gels were collected (Zeiss Axio Observer Z1) at 5 different locations within the gels. The Cell Counter plugin in ImageJ (NIH) was used to quantify the fraction of cells which had formed colonies at day 4 after seeding. To assess the viability of intestinal tissue fragments embedded in PEG, phase contrast images of the entire gel were collected. The fraction of viable tissues was estimated based upon the epithelial morphology: tissues that featured an epithelial monolayer surrounding a central lumen after 24 h of embedding were deemed viable.

“Also recorded” adds a separate entry of the source.

B1: Wnt3a: recombinant Wnt3a (protein, UniProt P56704 19-352, looked up)
Protein Wnt-3a: SYPIWWSLAVGPQYSSLGSQPILCASIPGLVPKQLRFCRNYVEIMPSVAEGIKIGIQECQHQFRGRRWNCTTVHDSLAIFGPVLDKATRESAFVHAIASAGVAFAVTRSCAEGTAAICGCSSRHQGSPGKGWKWGGCSEDIEFGGMVSREFADARENRPDARSAMNRHNNEAGRQAIASHMHLKCKCHGLSGSCEVKTCWWSQPDFRAIGDFLKDKYDSASEMVVEKHRESRGWVETLRPRYTYFKVPTERDLVYYEASPNFCEPNPETGSFGTRDRTCNVSSHGIDGCDLLCCGRGHNARAERRREKCRCVFHWCCYVSCQECTRVYDVHTCK
On to B1, for which the “ISC culture with Wnt3a instead of CHIR99021 and valproic acid” value was “successfully cultured; also recorded: can successfully replace CHIR99021 and VPA”.
